In patent US20140322225A1 (ADRENOMED, published 2014):

Tests used:
[1] = molecular target: human recombinant adrenomedullin receptor (CRLR+RAMP3) (human); test: cell-based or functional assay
[2] = molecular target: T1, human adrenomedullin (hADM 1-52) (human); test: SPR (Biacore 2000), antibody captured via anti-mouse Fc, adrenomedullin as analyte
T1 construct: 52 amino acids, aa 95-146 of pre-proADM; also called Human ADM 1-52
Experimental: Reversible immobilization of the antibodies was performed using an anti-mouse Fc antibody covalently coupled in high density to a CM5 sensor surface according to the manufacturer's instructions (mouse antibody capture kit; GE Healthcare). (Lorenz et al., “Functional Antibodies Targeting IsaA of Staphylococcus aureus Augment-lost Immune Response and Open New Perspectives for Antibacterial Therapy”; Antimicrob Agents Chemother. 2011 January; 55(1): 165-173.)

[3] = molecular target: T1, human adrenomedullin (hADM 1-52); test: cell-based or functional assay
[4] = molecular target: T1, human adrenomedullin (hADM 1-52); test: cell-based or functional assay; remark: listed apart in the source

T1 sequence (peptide, as listed by the source): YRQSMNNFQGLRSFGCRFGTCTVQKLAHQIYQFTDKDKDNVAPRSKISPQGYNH

Binder	EC50 (read off the curve), cAMP formation [1] [nM]	Kd [2] [nM]	fold stability of hADM in human citrate plasma with NT-H against hADM alone (7.8 h) [3] [fold]	IC50 (read off the curve), half of the antibody's own maximal inhibition of cAMP formation induced by 5.63 nM hADM [4] [mg/L]
mouse adrenomedullin (mADM 1-50) (peptide) peptide: YRQSMNQGSRSNGCRFGTCTFQKLAHQIYQLTDKDKDGMAPRNKISPQGYNH	~0.08	–	–	–
NT-H (antibody, V domains shown, also called NT-H antibody; antibody NT-H) VH: QVQLQQSGAELMKPGASVKISCKATGYTFSRYWIEWVKQRPGHGLEWIGEILPGSGSTNYNEKFKGKATITADTSSNTAYMQLSSLTSEDSAVYYCTEGYEYDGFDYWGQGTTLTVSS VL: DVLLSQTPLSLPVSLGDQATISCRSSQSIVYSNGNTYLEWYLQKPGQSPKLLIYRVSNRFSGVPDRFSGSGSGTDFTLKISRVEAEDLGVYYCFQGSHIPYTFGGGTKLEIK	–	5.9	2.3	~2
